Test results as given in US20120316071A1 (published 2012).
Where a chain is given by its changes, count along the chain named. Names and notes keep the numbering of the source.

Key:
[1] = biological target: T1, rHuman IGF-1 sR, CF (R&D Systems Cat#391-GR) (human, UniProt P08069 31-932); assay: ECL Multispot (MSD) assay, antigen spotted on plate, 10 nM Fab; blank spot of this row 182
T1 construct: Bought soluble receptor; The column head prints only 'IGF-1'; also called insulin-like growth factor-1 soluble receptor

[2] = biological target: T2, rHuman P-Cadherin/Fc Chimera, CF (R&D Systems Cat#861-PC) (human, UniProt P22223 108-654); assay: as above
T2 construct: Bought reagent; Fc part of the bought chimera not given

[3] = biological target: T3, rHuman Erythropoietin R/Fc Chimera, CF (R&D Systems Cat#963-ER) (human, UniProt P19235 25-250); assay: as above
T3 construct: Bought reagent; also called EPO R; EPO R/Fc; Fc part of the bought chimera not given
T3 sequence (looked up): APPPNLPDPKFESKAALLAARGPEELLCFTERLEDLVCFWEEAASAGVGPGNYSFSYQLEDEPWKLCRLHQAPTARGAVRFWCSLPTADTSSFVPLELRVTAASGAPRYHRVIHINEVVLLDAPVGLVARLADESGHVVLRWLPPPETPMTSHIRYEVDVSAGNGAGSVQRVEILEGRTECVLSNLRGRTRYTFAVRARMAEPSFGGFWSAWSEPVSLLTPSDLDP

[4] = biological target: T4, rHuman ErbB2/Fc Chimera, CF (R&D Systems Cat#1129-ER) (human, UniProt P04626 23-652); assay: as above
T4 construct: Bought reagent; also called human epidermal growth factor 2 receptor; Fc part of the bought chimera not given

[5] = biological target: T5, rHuman EGF R/Fc Chimera, CF (R&D Systems Cat#344-ER) (human, UniProt P00533 25-645); assay: as above
T5 construct: Bought reagent; also called epidermal growth factor receptor; Fc part of the bought chimera not given

[6] = biological target: T6, rHuman HGF R/c-MET/Fc Chimera, CF (R&D Systems Cat#358-MT/CF) (human, UniProt P08581 25-932); assay: as above
T6 construct: Bought reagent; also called HGF R/Fc; hepatocyte growth factor receptor; Fc part of the bought chimera not given

[7] = biological target: T7, rHuman Notch-1/Fc Chimera, CF (R&D Systems Cat#3647-TK) (human, UniProt P46531 19-526); assay: as above
T7 construct: Bought reagent; Fc part of the bought chimera not given

[8] = biological target: T8, rHuman CD44/Fc Chimera, CF (R&D Systems Cat#3660-CD) (human, UniProt P16070 21-220); assay: as above
T8 construct: Bought reagent; Fc part of the bought chimera not given

[9] = biological target: T9, Recombinant Human DLL4 (R&D Systems Cat#1506-D4/CF) (human, UniProt Q9NR61 27-524); assay: MSD multispot ECL, antigen spotted, Fab 37.2 nM; blank spot 199
T9 construct: Bought recombinant protein; also called rHuman DLL4; delta-like protein 4

[10] = biological target: T10, rHuman ErbB2/Fc Chimera, CF (R&D Systems Cat#1129-ER) (human, UniProt P04626 23-652); assay: as above
T10 construct: Bought reagent; also called human epidermal growth factor 2 receptor

[11] = biological target: T11, rHuman EGF R/Fc Chimera, CF (R&D Systems Cat#344-ER) (human, UniProt P00533 25-645); assay: as above
T11 construct: Bought reagent; also called epidermal growth factor receptor

[12] = biological target: T12, rHuman HGF R/c-MET/Fc Chimera, CF (R&D Systems Cat#358-MT/CF) (human, UniProt P08581 25-932); assay: as above
T12 construct: Bought reagent; also called HGF R/Fc; hepatocyte growth factor receptor

[13] = biological target: T13, rHuman Notch-1/Fc Chimera, CF (R&D Systems Cat#3647-TK) (human, UniProt P46531 19-526); assay: as above
T13 construct: Bought reagent

[14] = biological target: T14, rHuman CD44/Fc Chimera, CF (R&D Systems Cat#3660-CD) (human, UniProt P16070 21-220); assay: as above
T14 construct: Bought reagent

[15] = biological target: T15, rHuman IGF-1 sR, (IGF-1 sR), CF (R&D Systems Cat#391-GR) (human, UniProt P08069 31-932); assay: as above
T15 construct: Bought soluble receptor; also called insulin-like growth factor-1 soluble receptor

[16] = biological target: T16, rHuman Erythropoietin R/Fc Chimera, CF (R&D Systems Cat#963-ER) (human, UniProt P19235 25-250); assay: as above
T16 construct: Bought reagent; also called EPO R/Fc; Epo R
T16 sequence (looked up): T3 sequence (looked up)

[17] = biological target: T17, Recombinant Human DLL4 (R&D Systems Cat#1506-D4/CF) (human, UniProt Q9NR61 27-524); assay: Multispot ECL (MSD), antigen spotted on plate, Fab 500 nM; blank spot 680
T17 construct: Bought recombinant protein; also called rHuman DLL4; delta-like protein 4

[18] = biological target: T18, rHuman IGF-1 sR, CF (R&D Systems Cat#391-GR) (human, UniProt P08069 31-932); assay: as above
T18 construct: Bought recombinant soluble receptor; also called insulin-like growth factor-1 soluble receptor

[19] = biological target: T19, rHuman Notch-1/Fc Chimera, CF (R&D Systems Cat#3647-TK) (human, UniProt P46531 19-526); assay: MSD Multispot ECL, antigen spotted on plate, Fab at 7.5 nM; blank spot 217
T19 construct: Bought Fc chimera; Fc part of the bought chimera not given

B1: Fab VH1-46_IGHD6-6*01_IGHJ1*01 S102A/S103P/S104F (APF) & L6_IGKJ1*01 (Fab, V domains shown)
VH: QVQLVQSGAEVKKPGASVKVSCKASGYTFTSYYMHWVRQAPGQGLEWMGIINPSGGSTSYAQKFQGRVTMTRDTSTSTVYMELSSLRSEDTAVYYCAREEYAPFSAEYFQHWGQGTLVTVSS
VL: not shown
notes: Tested as a Fab made in E. coli; also called H:APF & L:wt; APF triple mutant
ECL signal [1]: 344 | ECL signal [2]: 449 | ECL signal [3]: 222 | ECL signal [4]: 221 | ECL signal [5]: 296 | ECL signal [6]: 319 | ECL signal [7]: 251 | ECL signal [8]: 221

B2: Fab VH1-46_IGHD6-6*01_IGHJ1*01 & L6_IGKJ1*01 (Fab, V domains shown)
VH: B1 VH with A102S, P103S, F104S
VL: not shown
notes: Only variable domains are tied to the molecule; Tested as a Fab made in E. coli: heavy chain from Plasmid A (CH1 constant region, His6 and Flag tags), kappa light chain from Plasmid C (kappa CL); also called parent Hit Fab against DLL4; VH1-46_IGHD6-6*01_IGHJ1*01 & L6_IGKJ1*01 (parental)
ECL signal [9]: 16700 ECL signal | ECL signal [10]: 384 ECL signal | ECL signal [11]: 228 ECL signal | ECL signal [12]: 207 ECL signal | ECL signal [13]: 402 ECL signal | ECL signal [14]: 356 ECL signal | ECL signal [15]: 295 ECL signal | ECL signal [16]: 315 ECL signal

B3: Fab VH1-46_IGHD6-13*01_IGHJ4*01 & B3_IGKJ1*01 (Fab, V domains shown)
VH: B1 VH with E100G, A102S, P103S, F104S, S105W, A106Y, E107D, Q110D, H111Y
VL: not shown
notes: Germline Fab made in E. coli; VH was cloned into Plasmid A (CH1, His6 and Flag tags) and the kappa VL into Plasmid C (kappa CL)
ECL signal [17]: 2320 | ECL signal [18]: 1330

B4: Fab VH6-1_IGHD3-3*01_IGHJ4*01 & V4-3_IGLJ4*01 (Fab, V domains shown)
VH: QVQLQQSGPGLVKPSQTLSLTCAISGDSVSSNSAAWNWIRQSPSRGLEWLGRTYYRSKWYNDYAVSVKSRITINPDTSKNQFSLQLNSVTPEDTAVYYCAREYYDFWSGYYTDYFDYWGQGTLVTVSS
VL: QPVLTQPTSLSASPGASARLTCTLRSGINLGSYRIFWYQQKPESPPRYLLSYYSDSSKHQGSGVPSRFSGSKDASSNAGILVISGLQSEDEADYYCMIWHSSASFVFGGGTQLIIL
notes: Tested as a purified germline Fab made in E. coli; The VH was cloned into plasmid A (CH1 constant region, His6 and Flag tags) and the lambda VL into plasmid E (lambda CL)
ECL signal [19]: 392
